Results from paper PMC10570122 (iScience, 2023).

Assays:
[1] = target: T1, SARS-CoV-2 WT soluble RBD (residues 319-541) (SARS-CoV-2 Wuhan-Hu-1, UniProt P0DTC2); experiment: ELISA; details: both partners purified
T1 construct: also called WT RBD; WT D614G RBD gene fragment

[2] = target: T2, SARS-CoV-2 WT stabilized soluble spike protein, hexahistidine-tagged (SARS-CoV-2 Wuhan-Hu-1, UniProt P0DTC2, stabilised); experiment: BLI; details: both partners purified
T2 construct: also called WT SARS-CoV-2 S

B1: COVA309-22 monoclonal antibody (human IgG1) (antibody, V domains shown)
VH: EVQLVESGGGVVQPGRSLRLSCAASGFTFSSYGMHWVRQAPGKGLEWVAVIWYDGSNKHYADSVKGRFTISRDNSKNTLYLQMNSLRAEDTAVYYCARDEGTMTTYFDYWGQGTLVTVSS
VL: EIVLTQSPSSLSASVGDRVTITCRASQSISSYLNWYQQKPGKAPKLLIYDASSLQSGVPSRFSGSGSGTDFTLTISSLQPEDFATYYCQQSYSTPPWTFGQGTKVEIK
- binding result [1]: binds
- binding result [2]: binds
